In patent US20230167458A1, “FORSKOLIN-INDUCIBLE PROMOTERS AND HYPOXIA-INDUCIBLE PROMOTERS” (ASKLEPIOS BIOPHARMACEUTICAL, INC., priority 2020, published 2023):

Experiments:
[1] = tested on: HEK293-T; experiment: Luciferase expression in normoxia vs 24 h hypoxia, transiently transfected HEK293-T; type: cell-based, human
Description: HEK293-T are seeded at a density of 20%. Once they reached a confluence between 60 and 80%, the media is changed with DMEM (#21885-025—Thermo Scientific) supplemented with 10% FBS (Gibco, 26140). After 3 hours, the cells were transfected by a transfection mix. The transfection mix is prepared by adding DNA ([…] per 6 well plate) and PEI 25 kDA (#23966-1—Polyscience) in a ratio of 1:3 in sterile DPBS (#14190169—ThermoFisher Scientific). After mixing, the transfection mix is incubated at room temperature for 30 minutes and then added directly to the cells. After 16 to 18 h post transfection, the media is changed to DMEM+2% FBS. The transfected DNA was one of the vectors where the promoter constructs (RTV-015, HYBT, RTV-016, HV3C) or a control promoter (CMV-IE) were used to drive luciferase expression and β-galactosidase containing pcDNA6 plasmid. The β-galactosidase containing plasmid was used as internal control for transfection efficiency (Thermofisher, V22020).
(§1) After transfection the cells were incubated for 24 hrs in normoxic conditions (20% oxygen). Induction of the promoters was assessed by using luciferase activity after 24 hrs in normoxia or hypoxia (5% oxygen, 10% carbon dioxide and 85% nitrogen). Hypoxia was achieved by gas displacement in a sealed hypoxia chamber.
Luciferase activity was measured using LARII (Dual Luciferase Reporter 1000 assay system, Promega, E1980).
Media was removed from the cells at the respective time point (0, 3, 5, 24 hrs after induction). The cells were washed once in 300 μl of DPBS. Cells were lysed by adding 100 μl of passive lysis buffer to the cells and incubation with rocking for 15 minutes. The cell debris was pelleted by centrifugation of the plate at max speed in a benchtop centrifuge for 1 min. 10 μl of supernatant was pipetted into white 96-well plate and luminescence measured by addition of 50 μl of LARII substrate.
β-galactosidase activity was measured as per manufacturer's instructions (Mammalian βGalactosidase Assay Kit, 75707/75710, Thermo Scientific) using 25 μl of lysate. 25 μl of lysate was transferred into a microplate well and mixed with 25 μl of β-galactosidase Assay Reagent, equilibrated to room temperature. The mixture was incubated at 37° C. for 30 min and absorbance measured at 405 nm.
Luciferase readouts were normalised to β-galactosidase to produce normalised relative luminometer units (RLUs).

[2] = tested on: CHO-GSK1SV; experiment: Luciferase expression in normoxia vs 24 h hypoxia, transiently transfected CHO-GS suspension cells; type: cell-based, chinese hamster; conditions: transient CHO_GS
Description: 40 ml of cells were grown in a 250 ml vented Erlenmeyer flask (Sigma-Aldrich CLS431144) at 37° C., 20% O2, 8% CO2 with agitation at 100 rpm. Cells were seeded as at 300,000 cells/ml.
One day before transfection, the cells were counted using a haemocytometer and split to 500,000 cells/ml.
On the day of transfection, the cells are seeded to 1,000,000 cells/ml in 500 μl of appropriate medium (Thermofisher, CD-CHO 10743029) in a 24 well plate. […] of DNA per well was then added to 10 μl of OptiMem medium (Thermofisher; 11058021) and incubated for 5 minutes at room temperature.
Concurrently, 0.625 μl of Freestyle Max reagent (Thermofisher, 16447100) was made up to 10 μl by addition of OptiMem and incubated for 5 minutes at room temperature. After this incubation, both mixes were added to the same tube and incubated at room temperature for 25-30 minutes. The DNA/Max reagent mix (20 μl/well) was then added directly to the cells and the cells incubated at 37 C, 8% CO2 with agitation at 100 rpm.
The transfected DNA was one of the vectors where the promoter constructs (RTV-015, HYBT, RTV-016, HV3C) or a control promoter (CMV-IE) were used to drive luciferase expression and β-galactosidase containing pcDNA6 plasmid. The β-galactosidase containing plasmid was used as internal control for transfection efficiency (Thermofisher, V22020).
as §1, with “chamber. Luciferase activity was measured as described above.” for “chamber.”

[3] = tested on: CHO-GSK1SV cell line; experiment: SEAP expression and cell number in normoxia vs 24 h hypoxia, stably transfected CHO-GS-KSV1; type: cell-based, chinese hamster; conditions: stably integrated CHO-GSK1SV
Description: Cell suspensions of 6×10^5 cells per mL are incubated on an orbital shaker set at 8% CO2, 20% O2, 37° C., 85% relative humidity and 140 rpm overnight. 2.86×10^7 cells were centrifuged at 200 g for 3 minutes. Media is then aspirated and cell pellet resuspended in 2 mL fresh CD-CHO media to obtain a concentration of 1.43×10^7 cells per mL. 700 μL of cell suspension was added to each of two electroporation cuvettes each containing […] of linearised DNA in 100 μL of sterile TE buffer (Thermofisher, 12090015). Each cuvette was electroporated, delivering a single pulse of 300V, […] with resistance to infinity. Immediately after delivery of pulse electroplated cells were transferred to Erlenmeyer 125 mL flask containing 20 mL of CD-CHO media pre-warmed to 37° C. Electroporated cells from two cuvettes are combined into a single 125 mL flask to generate one pool of cells. Cells are cultured on an orbital shaker set at 8% CO2, 20% 02, 37° C., 85% relative humidity and 140 rpm. Cells are transferred to fresh CD-CHO media 24 hours after transfection and cell cultures monitored and given fresh CD-CHO media every 2-4 days. Usually after about 10-14 days cell numbers will be high enough to start passaging. Cells were selected at 14 days and then expanded. Induction was performed once doubling time had returned to approx. 24 hrs. The cells assayed in this example were at passage number 15, 17, 19 and 21.
The transfected DNA was pXC-17.4 expression vector (Lonza Biologics plc) where one of the promoter constructs (RTV-015, HYBT, RTV-016, HV3C) or a control promoter (CMV-IE) have been cloned upstream of the SEAP gene, which had been cloned into the multiple cloning site within the vector expression cassette. Promoters were closed into the pXC-17.4 vector using Gibson assembly. The pXC-17.4 expression vector is designed for making stable cell lines in the CHO-GSK1SV cell line as it contains the […] gene which has been knocked out of the cell line. Therefore, selection of cells in glutamine drop-out medium will select for cells that have stably integrated the plasmid.
Stably transfected CHO-GS cells were seeded at 500,000 cells/ml and allowed to grow for 24 hrs, at this point the cells were counted and placed under hypoxic conditions as previously described. After 24 hrs, the cell numbers and the expression of SEAP was measured.
SEAP Reporter Gene Assay, chemiluminescent (Roche, CAT #11 779 842 001) was used to measured SEAP activity as per manufacturers protocol. All reagents and samples were fully pre-equilibrated at room temperature. Culture supernatant was collected from the stably transfected CHO-GS at the specific time points (0 h and 24 h). The supernatant was diluted 1:4 in dilution buffer and heat treated at 65° C. for 30 minutes. The heat-treated sample was then centrifuged for 30 s at maximum speed. 50 μl of the heat-treated sample was then added to 5 μl of inactivation buffer and incubated for 5 min at room temperature. 50 μl of substrate reagent was then added and incubated for 10 min at room temperature. The signal is then read at 477 nm and compared to a calibration curve. SEAP expression was normalized against cell number to ensure that the increase in activity was not due to increased cell numbers and was true induction. The result of this experiment can be seen in FIG. 16 and FIG. 17.

Molecule	luciferase activity in normoxia [1]	luciferase activity in normoxia [2]	SEAP activity in normoxia [3]	inducibility after 24 hours in hypoxia (rank) [3]
RTV-016: synthetic hypoxia-inducible promoter, SEQ ID NO: 82; 6 HRE2 elements spaced by 20 bp and CMV minimal promoter (nucleic acid, Synp-RTV-016, 6 HRE2 elements spaced by 20 bp and CMV minimal promoter) DNA: CTGCACGTAGATGATGCGTAGCTAGTAGTCTGCACGTAGATGATGCGTAGCTAGTAGTCTGCACGTAGATGATGCGTAGCTAGTAGTCTGCACGTAGATGATGCGTAGCTAGTAGTCTGCACGTAGATGATGCGTAGCTAGTAGTCTGCACGTAGTAGTCGTATGCTGATGCGCAGTTAGCGTAGCTGAGGTACCGTCGACGATATCGGATCCAGGTCTATATAAGCAGAGCTCGTTTAGTGAACCGTCAGATCGCCTAGATACGCCATCCACGCTGTTTTGACCTCCATAGAAGATCGCCACC	almost no luciferase activity	almost no luciferase activity	almost no SEAP activity	
HYBT: synthetic hypoxia-inducible promoter, SEQ ID NO: 84/86; 4 HRE3 elements and YB-TATA minimal promoter (nucleic acid, Synp-HYBT, 4 HRE3 elements and YB-TATA minimal promoter) DNA: GATCTTTGTATTTAATTAAGACCTTGAGTACGTGCGTCTCTGCACGTATGGCGATTAAGACCTTGAGTACGTGCGTCTCTGCACGTATGGCGATTAAGACCTTGAGTACGTGCGTCTCTGCACGTATGGCGATTAAGACCTTGAGTACGTGCGTCTCTGCACGTATGGCGATTAATCCATATGCTCTAGAGGGTATATAATGGGGGCCACTAGTCTACTACCAGAAAGCTTGGTACCGAGCTCGGATCCAGCCACC	almost no luciferase activity	almost no luciferase activity	almost no SEAP activity	highest
